Experimental data published in PMC9141747.

Tests used:
[1] = molecular target: T1, H-NS (Escherichia coli K1 (RS218?)) (UniProt P0ACF8); assay: EMSA; conditions: 10 mM Tris pH 7.5, 1 mM EDTA, 100 mM KCl, 0.1 mM DTT, 5% glycerol, 0.01 mg/mL BSA
T1 sequence: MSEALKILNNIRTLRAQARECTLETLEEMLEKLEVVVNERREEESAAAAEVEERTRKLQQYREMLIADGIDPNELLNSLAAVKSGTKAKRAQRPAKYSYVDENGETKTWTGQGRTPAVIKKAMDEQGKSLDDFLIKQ

[2] = test system: T2, YbdO (Escherichia coli K1 (RS218?)), ORF:f8d494c4; assay: EMSA; conditions: 10 mM Tris pH 7.5, 1 mM EDTA, 100 mM KCl, 0.1 mM DTT, 5% glycerol, 0.01 mg/mL BSA; […]
T2 sequence: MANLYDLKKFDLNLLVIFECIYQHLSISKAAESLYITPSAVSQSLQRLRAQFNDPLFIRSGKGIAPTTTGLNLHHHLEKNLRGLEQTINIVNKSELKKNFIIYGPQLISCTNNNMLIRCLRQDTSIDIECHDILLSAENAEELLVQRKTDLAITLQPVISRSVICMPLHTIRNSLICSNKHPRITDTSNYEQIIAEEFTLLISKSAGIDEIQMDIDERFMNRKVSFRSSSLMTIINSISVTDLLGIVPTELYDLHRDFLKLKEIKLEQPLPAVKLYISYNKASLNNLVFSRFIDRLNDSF

## ACATACTCCGTTGTATTGTCTCTTCCATAAATCATTCACTTGATCAATAATGTTGTTGTATTTATATGTATTATGTTTTTCTGCTTAACTTTGGATTAAGATTTTCTAAAATAGCATAGCTGTCAGGTGGGTTACGAGCAATTCATGCGTTTTTAGGATGGTTGAAAAGCAGAGAGAGATTTCAACCATCGATGAATTATATTCTATTTATTCCCCATAATGATATTAAGTGTTTTCTGATCGGGTAATCCGACGGCTTGTTGCAGGGTA (double strand) [PybdO]
[1]; […]
  binding: binds

## GCGGCCCCAGGCCGAGCCAGTTTACCCGCTCTGAGACCTGCGCCAGCTGGCAGGTCAGGCCAATCCGCGCCGGATGCGGTGTATCGCTTGCCACCGCAACATCCACATTGATGACCATCTCACCGTGCCCATCAATCCGGTAGG (double strand) [lacZ fragment]
[1]; 20 ng DNA in 20 uL, 25 C, 30 min, native 8% PAGE in 0.5x TBE, GelRed stain
  binding: no binding
[2]
  binding: no binding

## TTTCCTGAGAAATTAACTCTGCATTCTAAAACGGCCAGTTTTCTGAAATTACCAGAAGACCGAATACATTCATGCCTGAAGAATGGATTAGAAGAAACGAGACGGAAATAGATCTATTTATCCCTGCGGAAATAATTTCTGCTGAAATTTTTTTGCGGCTATTAAAAAGGTCAAACCGTCTGAGTAAATTTTATCCAGTTACAAACAAGTATTACCTCCAGTGTATTGGTAGCTGTTAAGCCAAGGGCGGTAGCGTACCTGAAGAGATTAGGATCACATCATCAAATGG (double strand) [PkpsM]
[2]
  binding: binds
